{"source": "patent US6387696", "key": {"[1]": {"target": "recombinant human calcium channel α1B-1α2bβ1-2 on transfected HEK293 cells (human)", "test": "saturation binding of 125I-ω-CgTx GVIA to transiently transfected HEK293 cells"}, "[2]": {"target": "recombinant human calcium channel α1B-1β1-2 on transfected HEK293 cells (human)", "test": "saturation binding of 125I-ω-CgTx GVIA to transiently transfected HEK293 cells"}, "[3]": {"target": "recombinant human calcium channel α1B-1β1-3 on transfected HEK293 cells (human)", "sequence (B1AQK5 whole entry, chain 1 of 2)": "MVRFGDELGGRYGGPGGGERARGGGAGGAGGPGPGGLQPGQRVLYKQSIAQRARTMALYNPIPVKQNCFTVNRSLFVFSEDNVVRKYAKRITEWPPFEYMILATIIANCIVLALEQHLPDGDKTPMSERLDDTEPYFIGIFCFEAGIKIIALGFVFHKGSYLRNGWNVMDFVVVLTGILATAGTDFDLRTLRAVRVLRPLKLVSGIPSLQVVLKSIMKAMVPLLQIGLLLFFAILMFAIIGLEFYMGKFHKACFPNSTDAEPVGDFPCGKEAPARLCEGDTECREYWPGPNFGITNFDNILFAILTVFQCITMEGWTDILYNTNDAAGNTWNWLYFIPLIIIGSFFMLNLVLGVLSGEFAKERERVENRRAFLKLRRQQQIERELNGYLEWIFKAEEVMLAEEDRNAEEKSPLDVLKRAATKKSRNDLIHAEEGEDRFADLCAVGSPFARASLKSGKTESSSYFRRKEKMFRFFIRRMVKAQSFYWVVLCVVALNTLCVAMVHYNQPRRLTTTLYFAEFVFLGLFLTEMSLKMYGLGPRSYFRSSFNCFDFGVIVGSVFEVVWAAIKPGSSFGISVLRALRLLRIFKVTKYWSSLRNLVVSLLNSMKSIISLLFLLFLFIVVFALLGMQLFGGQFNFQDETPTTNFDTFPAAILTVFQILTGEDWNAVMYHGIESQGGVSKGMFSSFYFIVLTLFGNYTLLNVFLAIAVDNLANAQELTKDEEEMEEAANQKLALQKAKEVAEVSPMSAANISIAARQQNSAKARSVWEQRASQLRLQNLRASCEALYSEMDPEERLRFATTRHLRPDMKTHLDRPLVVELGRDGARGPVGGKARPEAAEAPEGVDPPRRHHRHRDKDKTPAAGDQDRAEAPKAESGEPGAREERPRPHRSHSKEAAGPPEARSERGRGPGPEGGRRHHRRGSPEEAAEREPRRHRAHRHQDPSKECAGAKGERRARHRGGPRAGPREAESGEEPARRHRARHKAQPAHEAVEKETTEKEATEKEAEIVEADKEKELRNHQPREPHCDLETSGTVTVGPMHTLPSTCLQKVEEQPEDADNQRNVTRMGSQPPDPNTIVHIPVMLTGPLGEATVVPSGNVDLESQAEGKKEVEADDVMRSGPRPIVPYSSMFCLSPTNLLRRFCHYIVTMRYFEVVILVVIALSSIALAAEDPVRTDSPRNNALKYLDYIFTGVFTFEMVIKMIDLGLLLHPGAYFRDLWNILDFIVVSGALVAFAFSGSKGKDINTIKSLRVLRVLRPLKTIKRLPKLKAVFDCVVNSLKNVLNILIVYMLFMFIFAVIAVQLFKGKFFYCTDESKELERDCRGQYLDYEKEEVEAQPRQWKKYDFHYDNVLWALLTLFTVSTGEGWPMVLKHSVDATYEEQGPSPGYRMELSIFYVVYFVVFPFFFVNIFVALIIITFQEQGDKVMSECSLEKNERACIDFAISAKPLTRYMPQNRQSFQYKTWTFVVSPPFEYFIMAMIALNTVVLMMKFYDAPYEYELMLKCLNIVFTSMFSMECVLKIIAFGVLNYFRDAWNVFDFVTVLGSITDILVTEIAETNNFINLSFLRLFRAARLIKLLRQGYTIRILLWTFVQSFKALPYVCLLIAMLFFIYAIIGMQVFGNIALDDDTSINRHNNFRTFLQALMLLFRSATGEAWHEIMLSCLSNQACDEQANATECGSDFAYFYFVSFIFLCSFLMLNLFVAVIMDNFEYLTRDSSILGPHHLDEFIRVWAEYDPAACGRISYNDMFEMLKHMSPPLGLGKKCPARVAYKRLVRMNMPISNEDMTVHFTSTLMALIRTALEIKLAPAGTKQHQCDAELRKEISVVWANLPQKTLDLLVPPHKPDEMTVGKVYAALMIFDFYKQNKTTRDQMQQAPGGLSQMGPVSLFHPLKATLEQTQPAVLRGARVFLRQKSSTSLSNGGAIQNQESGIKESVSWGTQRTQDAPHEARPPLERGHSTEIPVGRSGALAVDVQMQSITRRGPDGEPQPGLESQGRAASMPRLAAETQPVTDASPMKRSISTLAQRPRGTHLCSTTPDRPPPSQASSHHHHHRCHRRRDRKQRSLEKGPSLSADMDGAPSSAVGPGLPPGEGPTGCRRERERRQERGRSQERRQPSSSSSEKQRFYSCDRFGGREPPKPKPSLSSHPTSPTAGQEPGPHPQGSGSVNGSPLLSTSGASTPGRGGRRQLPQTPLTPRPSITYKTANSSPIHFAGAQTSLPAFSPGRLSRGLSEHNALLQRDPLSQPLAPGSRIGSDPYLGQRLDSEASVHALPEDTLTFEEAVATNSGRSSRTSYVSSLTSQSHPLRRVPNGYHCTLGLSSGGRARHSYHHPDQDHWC", "sequence (A8K114 whole entry, chain 2 of 2, further chain)": "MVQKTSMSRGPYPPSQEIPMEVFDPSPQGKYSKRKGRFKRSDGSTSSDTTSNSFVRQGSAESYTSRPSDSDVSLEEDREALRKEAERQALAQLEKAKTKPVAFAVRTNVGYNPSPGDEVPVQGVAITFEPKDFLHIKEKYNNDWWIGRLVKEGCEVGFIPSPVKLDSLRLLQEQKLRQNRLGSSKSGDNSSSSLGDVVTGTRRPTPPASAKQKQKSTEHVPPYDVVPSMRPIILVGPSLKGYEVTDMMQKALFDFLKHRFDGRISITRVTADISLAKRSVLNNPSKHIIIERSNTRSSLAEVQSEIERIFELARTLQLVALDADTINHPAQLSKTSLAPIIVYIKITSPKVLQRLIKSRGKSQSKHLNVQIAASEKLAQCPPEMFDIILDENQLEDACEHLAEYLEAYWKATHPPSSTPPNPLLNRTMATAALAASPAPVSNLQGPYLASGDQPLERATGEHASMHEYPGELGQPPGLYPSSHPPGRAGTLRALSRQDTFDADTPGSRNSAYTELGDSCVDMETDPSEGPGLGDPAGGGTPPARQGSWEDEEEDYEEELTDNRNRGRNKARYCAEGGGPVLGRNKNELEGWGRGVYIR", "test": "saturation binding of 125I-ω-CgTx GVIA to transiently transfected HEK293 cells"}, "[4]": {"target": "recombinant human calcium channel α1B-2α2bβ1-2 on transfected HEK293 cells (human)", "sequence (B1AQK5 whole entry, chain 1 of 3)": "as the sequence (B1AQK5 whole entry, chain 1 of 2) above", "sequence (P54289 whole entry, chain 2 of 3, further chain)": "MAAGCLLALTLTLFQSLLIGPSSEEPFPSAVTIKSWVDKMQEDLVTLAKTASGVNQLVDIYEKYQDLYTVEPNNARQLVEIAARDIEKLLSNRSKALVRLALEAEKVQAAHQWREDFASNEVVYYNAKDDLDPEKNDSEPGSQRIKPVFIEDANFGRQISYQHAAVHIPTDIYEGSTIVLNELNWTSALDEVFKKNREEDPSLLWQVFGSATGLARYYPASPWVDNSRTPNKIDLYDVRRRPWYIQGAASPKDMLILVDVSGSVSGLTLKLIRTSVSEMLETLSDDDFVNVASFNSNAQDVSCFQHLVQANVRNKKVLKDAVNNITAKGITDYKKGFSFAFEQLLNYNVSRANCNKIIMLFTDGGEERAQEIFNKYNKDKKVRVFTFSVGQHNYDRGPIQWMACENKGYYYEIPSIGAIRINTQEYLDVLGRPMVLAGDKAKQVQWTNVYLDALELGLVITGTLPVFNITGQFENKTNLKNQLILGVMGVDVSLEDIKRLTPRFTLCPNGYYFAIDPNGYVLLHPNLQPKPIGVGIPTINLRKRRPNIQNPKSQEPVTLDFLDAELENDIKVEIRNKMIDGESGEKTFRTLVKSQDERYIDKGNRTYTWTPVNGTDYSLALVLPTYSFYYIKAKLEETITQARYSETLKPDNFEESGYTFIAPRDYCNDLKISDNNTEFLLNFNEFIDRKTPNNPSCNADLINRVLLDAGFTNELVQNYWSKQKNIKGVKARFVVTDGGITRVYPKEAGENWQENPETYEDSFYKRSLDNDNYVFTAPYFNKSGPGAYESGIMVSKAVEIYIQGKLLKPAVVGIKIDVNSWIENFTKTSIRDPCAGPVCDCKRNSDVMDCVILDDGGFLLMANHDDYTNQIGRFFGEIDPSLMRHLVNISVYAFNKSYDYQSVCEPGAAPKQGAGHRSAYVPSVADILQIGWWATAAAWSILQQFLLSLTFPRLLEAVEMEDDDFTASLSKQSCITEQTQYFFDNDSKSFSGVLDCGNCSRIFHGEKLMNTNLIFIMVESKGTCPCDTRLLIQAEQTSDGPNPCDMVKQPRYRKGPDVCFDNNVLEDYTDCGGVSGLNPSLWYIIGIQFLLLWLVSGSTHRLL", "sequence (A8K114 whole entry, chain 3 of 3, further chain)": "as the sequence (A8K114 whole entry, chain 2 of 2, further chain) above", "test": "saturation binding of 125I-ω-CgTx GVIA to transiently transfected HEK293 cells"}, "[5]": {"target": "recombinant human calcium channel α1B-2α2bβ1-3 on transfected HEK293 cells (human)", "test": "saturation binding of 125I-ω-CgTx GVIA to transiently transfected HEK293 cells"}, "[6]": {"target": "recombinant human calcium channel α1B-2β1-2 on transfected HEK293 cells (human)", "test": "saturation binding of 125I-ω-CgTx GVIA to transiently transfected HEK293 cells"}, "[7]": {"target": "recombinant human calcium channel α1B-2β1-3 on transfected HEK293 cells (human)", "test": "saturation binding of 125I-ω-CgTx GVIA to transiently transfected HEK293 cells"}, "[8]": {"target": "recombinant human calcium channel α1B-1α2bβ1-2 on transfected HEK293 cells (human)", "test": "ω-CgTx binding to transiently transfected HEK293 cells (8, 5 and 2 µg plasmids)"}, "[9]": {"target": "human calcium channel α1B-1 subunit alone on transfected HEK293 cells (human)", "sequence (B1AQK5 whole entry)": "as the sequence (B1AQK5 whole entry, chain 1 of 2) above"}, "[10]": {"target": "T1, recombinant human calcium channel α1B-1α2b on transfected HEK293 cells (human)", "T1 sequence (B1AQK5 whole entry, chain 1 of 2)": "as above", "T1 sequence (P54289 whole entry, chain 2 of 2, further chain)": "as the sequence (P54289 whole entry, chain 2 of 3, further chain) above"}, "[11]": {"target": "T1, recombinant human calcium channel …", "test": "saturation binding of 125I-ω-CgTx GVIA to transiently transfected HEK293 cells"}}, "data": [{"molecule": "125I-ω-CgTx GVIA (from UniProt P01522 46-72) (peptide)", "values": [{"measurement": "Bmax (sites/cell)", "setting": "[1]", "result": 45300, "unit": "sites/cell"}, {"measurement": "Kd", "setting": "[1]", "result": 0.0549, "unit": "nM"}, {"measurement": "fold change of binding sites per cell (Bmax) against α1B-2α2bβ1-2", "setting": "[1]", "result": 2.5, "unit": "fold"}, {"measurement": "fold change of surface receptor density (Bmax) against α1B-1β1-2", "setting": "[1]", "result": 8, "unit": "fold"}, {"measurement": "Bmax (sites/cell)", "setting": "[2]", "result": 5760, "unit": "sites/cell"}, {"measurement": "Kd", "setting": "[2]", "result": 0.0179, "unit": "nM"}, {"measurement": "fold change of surface binding (Bmax) against α1B-1 alone", "setting": "[2]", "result": 8, "unit": "fold"}, {"measurement": "Bmax (sites/cell)", "setting": "[3]", "result": 8730, "unit": "sites/cell"}, {"measurement": "Kd", "setting": "[3]", "result": 0.0179, "unit": "nM"}, {"measurement": "fold change of surface binding (Bmax) against α1B-1 alone", "setting": "[3]", "result": 10, "unit": "fold"}, {"measurement": "Bmax (sites/cell)", "setting": "[4]", "result": 19400, "unit": "sites/cell"}, {"measurement": "Kd", "setting": "[4]", "result": 0.053, "unit": "nM"}, {"measurement": "fold change of surface receptor density (Bmax) against α1B-2β1-2", "setting": "[4]", "result": 9, "unit": "fold"}, {"measurement": "Bmax (sites/cell)", "setting": "[5]", "result": 37700, "unit": "sites/cell"}, {"measurement": "Kd", "setting": "[5]", "result": 0.0443, "unit": "nM"}, {"measurement": "fold change of binding capacity (Bmax) against α1B-2α2bβ1-2", "setting": "[5]", "result": 2, "unit": "fold"}, {"measurement": "fold change of surface receptor density (Bmax) against α1B-2β1-3", "setting": "[5]", "result": 13, "unit": "fold"}, {"measurement": "Bmax (sites/cell)", "setting": "[6]", "result": 2130, "unit": "sites/cell"}, {"measurement": "Kd", "setting": "[6]", "result": 0.0164, "unit": "nM"}, {"measurement": "Bmax (sites/cell)", "setting": "[7]", "result": 2940, "unit": "sites/cell"}, {"measurement": "Kd", "setting": "[7]", "result": 0.0222, "unit": "nM"}]}, {"molecule": "ω-CgTx (from UniProt P01522 46-72) (peptide)", "values": [{"measurement": "Kd", "setting": "[8]", "result": 0.0546, "unit": "nM"}, {"measurement": "binding capacity (Bmax) (sites per cell)", "setting": "[8]", "result": 28700}]}, {"molecule": "CKSPGSSCSPTSYNCCRSCNPYTKRCY (modifications not checked)", "note": "[125I-ω-CgTx GVIA, P01522 46-72]", "values": [{"measurement": "Bmax (sites/cell)", "setting": "[9]", "result": 757, "unit": "sites/cell"}, {"measurement": "Kd", "setting": "[9]", "result": 0.0317, "unit": "nM"}, {"measurement": "Bmax (sites/cell)", "setting": "[10]", "result": 2260, "unit": "sites/cell"}, {"measurement": "Kd", "setting": "[10]", "result": 0.0846, "unit": "nM"}, {"measurement": "fold change of binding capacity (Bmax) against α1B-1 alone", "setting": "[11]", "result": 3, "unit": "fold"}]}]}
